Patent US10364296B2, “Antibodies specific for MMP9” (CALYPSO BIOTECH SA, priority 2014, dated 2019)

B1: F20-VH-GL1-V4-V9/B08-VL-GL6c: VH SEQ ID NO: 19; VL SEQ ID NO: 70; reformatted as human IgG4; the F20-VH/B08-VLc variant of Examples 5-12 (antibody, V domains shown)
VH: EVQLVESGGGLVQPGRSLRLSCAASGFTFNDYPMHWVRQAPGKGLEWVSGISSRSGSVGYAESVKGRFTISRDNAKNSLYLQMNSLRAEDTALYYCARDKIYYGSGSYDFYYYYGMDVWGQGTTVTVSS
VL: QSALTQPASVSGSPGQSITISCTGTSNDVGAYNRVSWYQQHPGKAPKLMIYGVSNRPSGVSNRFSGSKSGNTASLTISGLQAEDEADFYCTSYSSSTTSYVVFGGGTKVTVL
modifications: human IgG4 format; heavy chain F20-VH-GL1-V4-V9; light chain B08-VL-GL6c
B2: F20-VH/B08-VLc: VH SEQ ID NO: 11; VL SEQ ID NO: 69; HO candidate selected for lead optimization; name also used loosely for its tested variant (antibody, V domains shown)
VH: EVQLVESGGGLVQPGRSLRLSCAASGFTFNDYPMHWVRQAPGKGLEWVSGISSNSGSVGYADSVKGRFTISRDNAKNSLYLQMNSLRDEDTAVYYCARDKIYYGSGSYDFYYYYGMDVWGQGTTVTVSS
VL: QSALTQPRSVSGSPGQSVTISCTGTSNDVGAYNRVSWYQQHPGKAPKLLIYGVSNRPSGVSTRFSGSKSGNTASLTISGLLAADEADFYCTSYSSSTTSYVVFGGGTKVTVL
modifications: heavy chain F20-VH; light chain B08-VLc

How the values were obtained:
MMP3-activated MMP9 [1] = target: T1, MMP3-activated MMP9 (Homo sapiens, UniProt P14780); experiment: Direct binding ELISA; conditions: biotinylated antibody, antigen coated at 2.5 μg/ml
Protocol: (§1) MMP9 antigens were coated at 2.5 μg/ml. Controls were streptavidin-HRP alone (closed triangles), or human IgG4 isotype control plus biotinylated anti-human-IgG second step Fab antibody (closed squares).
(§2) Direct binding capacities of anti-MMP9 antibodies towards human pro-MMP9 and MMP3-activated human MMP9, respectively, were assessed using a standard ELISA protocol. Briefly, 96-well plates were coated with (2.5 μg/ml) of either form of MMP9 for 16 h at room temperature.

human pro-MMP9 [2] = target: T2, human pro-MMP9 (Homo sapiens, UniProt P14780); experiment: Direct binding ELISA; conditions: biotinylated antibody, antigen coated at 2.5 μg/ml
Protocol: as §1, §2

[3] = target: Human MMP9 (i.e. activated MMP9) (Homo sapiens, UniProt P14780); experiment: MMP9 assay: DQ-gelatin digestion by pre-activated (caspase-cleaved) MMP9; assay type: biochemical; conditions: MMP9 assay with highly purified activated MMP9
Protocol: The functional neutralization of MMP9 catalytic activity towards the fluorogenic polymer substrate DQ-gelatin by some antibodies according to the invention was evaluated. The signature activity of MMP9 (and MMP2) is gelatin degradation. Gelatin is essentially an irreversibly denatured form derived from various collagens, several of which are considered key physiological substrates for MMP9. Unlike small peptidic substrates, the binding and recognition of gelatin (similar to that of collagen) by MMP9 is complex and known to be mediated via regions of the molecule other than the active site, including the fibronectin and PEX domains. In order to retain these physiologically relevant ‘exosite’ interactions and to facilitate the isolation of potential ‘non-classical’ allosteric neutralizer classes, a fluorogenically quenched soluble gelatin polymer (DQ-gelatin) was chosen as the key substrate for plate-based screening and ranking purposes. Substrate hydrolysis was mediated by truncated fragment of MMP9 (ie. pro-domain removed). The assay was performed in two modes. The first mode, named “MMP9 assay”, utilized pre-activated MMP9 (from engineered MMP9 containing a LETD caspase 8 recognition motif at the native cleavage junction) in which the pro-domain was first removed via directed caspase 8 cleavage. […]

MMP3-activated MMP9 [4] = target: T1, MMP3-activated MMP9; experiment: Surface Plasmon Resonance (BIAcore) binding; conditions: for SPR binding to MMP3-activated MMP9 (in words): sensograms, 4.7 to 150 nM
Protocol: (§3) Sensorgrams of kinetics of binding are reported. Resonance unit (RU). All y axis-response (RU); all x axis-time (s).
(§4) Binding of anti-MMP9 antibodies towards recombinant human MMP9 antigen was characterized using standard Surface Plasmon Resonance (SPR) assay. In a first step, anti-MMP9 antibodies were captured by anti-human Fc antibody immobilized onto a BIAcore sensor chip. In a second step, pro-MMP9 or MMP3-activated MMP9 were titrated from 4.7 to 150 nM in 2-fold dilutions.

human pro-MMP9 [5] = target: T2, human pro-MMP9; experiment: Surface Plasmon Resonance (BIAcore) binding; conditions: for SPR binding to pro-MMP9 (in words): sensograms, 4.7 to 150 nM
Protocol: as §3, §4

[6] = test system: heterotopic intestinal grafts in C57BL/6 mice; experiment: Heterotopic transplant mouse model of intestinal fibrosis; assay type: in vivo
Protocol: Donor (green fluorescent protein-marked C57BL/6-Tg UBC-GFP mice) small bowel resections were transplanted subcutaneously into the neck of recipient C57BL/6 mice. Mice were injected intraperitoneally at day 5, 8 and 10 with 30 mg/kg of an anti-MMP9 antibody of the invention (F20-VH/B08-VLc, variant F20-VH-GL1-V4-V9/B08-VL-GL6c), or isotype control antibody (IgG4), 5 mice per group. Small bowel grafts were explanted 14 days after transplantation. After explant, each graft was divided into three equal segments. The central segment was fixed in 4% formalin, and prepared for histopathological assessment. The two outer segments were snap frozen in liquid nitrogen and stored at −70° C. until RNA or protein extraction.
Histologic cross sections were stained with Sirius red to highlight collagen (red stain). Collagen layer thickness was determined by an independent investigator blinded to the type of experiment. Microscopic assessment was done using an AxioCam MRc5 on a Zeiss Axiophot microscope. The thickness of the collagen layer was measured with the AxioVision Release 4.7.2 software (Zeiss). Thickness was calculated from eight places in representative areas (in eight samples investigated for each time point) at 100-fold magnification. Statistical analyses were performed using PRISM 6 software. Unpaired t test was used for comparison among groups.

MMP3-activated MMP9 [7] = target: T1, MMP3-activated MMP9; experiment: Competitive binding ELISA; conditions: pre-incubation with 50 μg/mL purified antibody
Excerpt: For panels A, B, C, results are expressed as mean±SD of corrected absorbance (A450-A620) for each condition performed in duplicate.

[8] = test system: MGC803 human gastric cancer cells; experiment: Cancer cell invasion through Matrigel-coated transwell; assay type: cell-based; conditions: 10 μg/ml antibody, PMA 100 ng/ml, 16 h
Protocol: MGC803 human gastric cancer cells were incubated with Phorbol 12-Myristate 13-Acetate (PMA) and with a broad chemical inhibitor of MMPs (GM-6001), anti-MMP9 antibody (F20-VH/B08-VLc), isotype control or medium alone. Invading cells were quantified after 16 hours using Calcein-AM. Each condition was performed in duplicates and means and SD of fluorescence units are reported.
Cancer cell line invasion was assessed using Matrigel-coated transwells. Insert membranes of transwells (provided in kit from Cultrex—3455-024) were coated with basement membrane extract (BME ×0.5; provided in Cultrex's kit) and incubated for 24 h at 37° C. Meanwhile, MGC803 (human gastric cancer cell line—Easy-Bio, China) were starved in RPMI culture medium (Gibco—52400025) deprived of serum (starving medium). […] One hundred μl of treated cells were seeded into Matrigel-coated transwells and 500 μl of RPMI medium containing 10% FCS were added in the lower side of the transwell. Plates were incubated for 16 h at 37° C. Invading cells were quantified by incubation of the bottom side of transwell membrane with Calcein-AM, whose cleavage into fluorescent Calcein is proportional to cell counts. Emitted fluorescent signal (Excitation at 485 nm, emission at 520 nm) reflects efficiency of cell invasion through Matrigel.

[9] = test system: DSS-induced colitis in BALB/c mice; experiment: DSS-induced colitis mouse model; assay type: in vivo; conditions: Day 14, vs isotype control
Protocol: The therapeutic efficacy of an anti-MMP9 antibody according to the invention was assessed in a DSS-induced colitis model in BALB/c mice. Colitis was induced with 4% (w/v) DSS in drinking water for 5 days. Doses of 30 mg/kg F20-VH/B08-VLc (variant F20-VH-GL1-V4-V9/B08-VL-GL6c) or isotype control (IgG4) antibodies were intraperitoneally injected to groups of 10 mice at day 6, 9 and 12, and animals were sacrificed at day 14.
The course of the disease was evaluated in blind fashion by video endoscopy of the lower colon at days 6, 10 and 14. Colitis was scored visually on a scale of 0-14 based on the degree of ulceration, vascularisation, and granularity present in tissue and colon length involved as follows: ulceration (0, 1, 2 or 3), masking of vascularisation (0, 1, 2 or 3), granularity (0, 1, 2 or 3), erythema (0, 1, 2 or 3), length involved (0, 1: localized, 2: diffuse). Each mouse was assigned a single endoscopy score corresponding to the damage observed throughout the entire length of the colon examined.
At study termination (Day 14), distal colon was excised from each mouse, formalin-fixed and embedded in paraffin and sectioned for histology. All sections were stained with haematoxylin and eosin and examined in a fashion blind as to treatment groups. Tissues were scored for epithelium damage and infiltration of inflammatory cells according to the scoring scale of […] for each parameter. The histology score represents the sum of the epithelium damage and infiltration of inflammatory cell scores, and thus ranges from 0 to 8.

T2 sequence (P14780 20-707): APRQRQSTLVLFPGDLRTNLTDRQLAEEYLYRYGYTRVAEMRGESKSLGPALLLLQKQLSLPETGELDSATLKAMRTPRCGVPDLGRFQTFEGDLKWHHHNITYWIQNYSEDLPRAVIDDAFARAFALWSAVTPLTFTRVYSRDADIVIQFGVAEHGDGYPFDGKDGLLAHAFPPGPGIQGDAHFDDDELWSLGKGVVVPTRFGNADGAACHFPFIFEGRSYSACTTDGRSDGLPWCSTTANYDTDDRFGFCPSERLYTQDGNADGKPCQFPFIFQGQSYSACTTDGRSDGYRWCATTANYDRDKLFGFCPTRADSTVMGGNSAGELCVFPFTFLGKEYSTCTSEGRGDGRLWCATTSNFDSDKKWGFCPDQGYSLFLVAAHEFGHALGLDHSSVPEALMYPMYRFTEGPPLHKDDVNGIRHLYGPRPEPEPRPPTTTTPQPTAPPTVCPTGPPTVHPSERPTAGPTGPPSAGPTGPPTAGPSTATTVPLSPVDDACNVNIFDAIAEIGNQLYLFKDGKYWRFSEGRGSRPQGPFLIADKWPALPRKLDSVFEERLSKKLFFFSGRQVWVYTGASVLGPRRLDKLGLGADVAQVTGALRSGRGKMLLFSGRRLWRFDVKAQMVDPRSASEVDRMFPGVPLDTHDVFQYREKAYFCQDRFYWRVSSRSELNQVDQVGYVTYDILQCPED
T1 sequence (P14780 107-707): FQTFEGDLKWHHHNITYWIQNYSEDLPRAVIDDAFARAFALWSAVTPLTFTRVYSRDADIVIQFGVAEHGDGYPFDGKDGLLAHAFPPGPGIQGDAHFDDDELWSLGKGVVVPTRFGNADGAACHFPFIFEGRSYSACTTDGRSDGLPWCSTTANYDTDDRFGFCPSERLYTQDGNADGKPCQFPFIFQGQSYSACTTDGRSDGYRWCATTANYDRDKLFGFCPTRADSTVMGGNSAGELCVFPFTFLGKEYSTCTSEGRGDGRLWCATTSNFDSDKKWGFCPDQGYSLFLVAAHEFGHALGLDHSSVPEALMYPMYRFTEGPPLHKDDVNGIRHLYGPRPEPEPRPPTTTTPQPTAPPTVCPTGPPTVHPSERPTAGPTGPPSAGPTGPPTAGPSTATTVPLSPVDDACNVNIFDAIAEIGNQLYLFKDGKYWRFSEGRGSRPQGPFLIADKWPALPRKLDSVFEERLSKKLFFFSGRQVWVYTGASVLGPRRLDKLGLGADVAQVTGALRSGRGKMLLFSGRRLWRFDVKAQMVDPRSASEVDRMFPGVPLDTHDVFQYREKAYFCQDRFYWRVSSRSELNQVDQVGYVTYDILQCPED
Human MMP9 (i.e. activated MMP9), sequence (P14780 107-707 limits assumed): as the sequence (P14780 107-707) above

Molecule	ELISA direct binding to MMP3-activated MMP9 (in words) (MMP3-activated MMP9 [1])	ELISA direct binding to pro-MMP9 (in words) (human pro-MMP9 [2])	decrease of DQ-gelatin digestion (in words) [3]	SPR binding to MMP3-activated MMP9 (in words) (MMP3-activated MMP9 [4])	SPR binding to pro-MMP9 (in words) (human pro-MMP9 [5])	occlusion of the intestinal lumen of the graft ([6]; 14 days after transplantation)	competition with biotinylated comparative antibody 1 for binding to MMP9 (in words) (MMP3-activated MMP9 [7])	inhibition of migration of MGC803 cancer cells through Matrigel [8]	binding observed to pro-MMP9 (human pro-MMP9 [5]; SPR, at a 150 nM antibody concentration) [%]	mean endoscopy score ([9]; 30 mg/kg i.p. day 6, 9, 12, p=0.005)	mean colitis severity score (histology) ([9]; 30 mg/kg i.p.)	mean score for epithelial damage ([9]; 30 mg/kg i.p.)	mean score for infiltration of inflammatory cells ([9]; 30 mg/kg i.p.)	loss of epithelial structure in heterotopic intestinal grafts ([6]; 30 mg/kg i.p. day 5, 8, 10, day 14, vs isotype control)	collagen layer thickness in heterotopic intestinal grafts ([6]; 30 mg/kg i.p. day 5, 8, 10, day 14, vs isotype control, p<0.0001)	Kd (MMP3-activated MMP9 [4]; SPR, MMP3-activated MMP9, calculated from the curves, read-out: KD (nM), antigen MMP9) [nM]	Kd (human pro-MMP9 [5]; SPR, antibody captured by anti-human Fc, calculated from the curves, read-out: KD (nM), antigen Pro-MMP9) [nM]
comparative antibody 1: antibody known as AB0041, heavy chain SEQ ID NO: 44, light chain SEQ ID NO: 45; mouse monoclonal, WO 2013/130078 [reference compound]	strongly bind	binds well	inactive	bind well	binds well												
B1	strongly bind	only shows significant binding to pro-MMP9 at the highest concentration tested		bind well	minimal signal	partial occlusion of the intestinal lumen	does not prevent binding of comparative antibody 1	efficiently inhibits migration	< 1								
B2										significant improvement	decrease	decreased	decreased	significantly protects against loss of epithelial structure	reduces collagen layer thickness	11.7	> 15000
